Test [1] has as its target H5N1 HA蛋白(BIOHJSW，货号orb-EHJ075488) (H5N1 avian influenza virus). In words: indirect ELISA, coated HA 5 μg/mL, hybridoma supernatant.
Test [2] concerns the target H1 HA. The description is as above.
In test [3] the target is H3 HA. The description is as above.
Test [4] deals with H5N1 HA蛋白(BIOHJSW，货号orb-EHJ075488) (H5N1 avian influenza virus).

A word on the Kd: it is a measure of binding affinity in units of concentration. A higher Kd goes with a looser complex.

B1: H5-3F5单克隆抗体 (antibody, V domains shown)
VH: EVQLVESGGGLVQPGGSLRLSCAASGFSLSEAVSGWVRQAPGKGLEWVGVCNNRIPFYLTWCKLFRFTISKDNSKNTLYLQMNSLRAEDTAVYYCARQRSYCNFQPHPNGWGQGTLVTVSS
VL: AYQMTQSPSSVSASVGDRVTITCGQNMMWIPAWLWYQQKPGKAPKLLIYETNGEHYGVPSRFSGSGSGTDFTLTISSLQPEDFATYYCMMMNARKSLQATKFGGGTKVEIK
In the case of B1, the OD450 amounted to 2.62 OD450 in test [1], 0.231 OD450 in test [2] and 0.412 OD450 in test [3]. Besides, the Kd in test [4] worked out at 0.407 nM.

These data come from CN115353562A.
